Measurements as given in patent US20120222143.

Assays:
Assay in all cases: cell_activity
[1] = test system: ACAN12 TALEN pair (left and right, FokI homodimer) (synthetic construct); conditions: fibroblasts, day 3 SURVEYOR
[2] = test system: DMDE6 TALEN pair (left and right) (synthetic construct); conditions: pig fibroblasts, day 3, co-transfected with DMDE7.1
[3] = test system: DMDE7.1 TALEN pair (left and right, FokI homodimer) (synthetic construct); conditions: fibroblasts, day 3 SURVEYOR
[4] = test system: btGDF83.1 TALEN pair (left and right) (synthetic construct); conditions: bovine fibroblasts, SURVEYOR; active at 30 and 37 C
[5] = test system: p65 (RELA) TALEN pair (left and right) (synthetic construct); conditions: porcine zygotes, 10 ng/ul mRNA each TALEN, 16 of 56

Work on ACAN12 target locus yielded an activity (% chromosomes cleaved (NHEJ)) [1] of 25.

Work on DMD exon 6 target locus yielded an activity [2] of 24 % NHEJ.

Substance DMD exon 7 target locus has an activity (% chromosomes cleaved (NHEJ)) [3] of 38.

In the case of GDF8 exon 3 target locus, the activity (% chromosomes cleaved (NHEJ)) [4] is reported as < 16.

p65 target locus gave an activity (% embryos with indels) [5] of 29.
